# Tested on: small intestinal immune cells
# Assay: Droplet-based scRNA-seq of small intestinal immune cells (LP and PP), OVA vs PBS, clustering and differential expression
# Type: in vivo, mouse
# Text: To comprehensively characterize small intestinal immune cells, Applicants generated scRNA-Seq profiles for 58,067 immune cells collected from lamina propria (LP) and Peyer's patch (PP) regions at steady state and after induction of a type 2 inflammatory reaction to ovalbumin (OVA) (Brandt et al., 2003) (FIGS. 1A and 8A). To ensure sufficient representation of rare cells, Applicants combined a normalization strategy—removing by flow sorting either a portion of IgD+ naïve B cells, which are the most abundant cell type in PPs, or all CD19+ and CD3+ T cells (FIG. 8B, Methods)—with profiling of a sufficiently large number of cells number (P>0.99 to recover at least 15 cells from each cluster, Methods) by massively parallel scRNA-seq (Haber et al., 2017) (Methods). Applicants obtained 36,797 and 21,270 high quality cells passing initial filtering (Methods) from PP and LP regions, respectively.
# Overall, Applicants annotated 27 cell subsets across the two compartments, spanning T cells, B cells, ILCs, dendritic cells (DCs), myeloid cells and stromal cells, in frequencies ranging from 0.07% to 14%. Briefly, Applicants first partitioned the cells from the PP regions by unsupervised clustering (Methods) into 46 clusters, retained the 97% of cells that were robustly assigned cell identities in each cluster (Methods), assigned the cells from the LP regions to the 46 clusters using a classifier (Methods), and visualized the data with scvis (Ding et al., 2018), a deep generative model-based method (FIGS. 1B and 8C, Methods). Next, Applicants identified genes that were differentially expressed between the cells in each cluster and the remaining cells (Table 1, Methods), as well as between pairs of clusters (Table 2), to elucidate identities of similar cell types/states. Applicants excluded from downstream analysis clusters mostly consisting of contaminants from epithelium, likely doublets, or cells with a small number of Unique Molecular Identifiers (UMIs) (FIGS. 1C and 8D), or lacking distinct markers (Methods). Altogether, Applicants retained 27 clusters spanning 85% of the cells and each associated with distinct marker genes (FIG. 8E, Methods).
# To induce allergic reaction to OVA, 6 to 7 weeks old mice were sensitized twice, two weeks apart, with 50 μg of OVA plus 1 mg of aluminum potassium sulfate adjuvant via intraperitoneal injection. Two weeks later, mice were orally administered with 50 mg of OVA on every other day for a total of five times. 1 μg of α-CGRP peptide was administered simultaneously when indicated. Mice were deprived of food for 3-4 hours in cages with wood chip bedding for limiting antigen degradation in the stomach before each intragastric challenge.
# Isolation of cells from Peyer's patches (PPs). Peyer's patches (PPs) were carefully dissected from the small intestine under a stereo microscope using a fine scissor, pierced once with a fine forcep. Tissues were digested in freshly made digestion buffer (RPMI-1640 containing 100 μg/ml Liberase™ and 50 μg/ml DNase I at 37° C. on a roto-mixer. After 15 min, tissues were very gently mixed using a 1 ml pipette. The supernatant was collected and added to ice-cold MACS buffer (pH 7.4; PBS plus 2% FCS and 2 mM EDTA). Pre-warmed (37° C.) fresh digestion buffer was added to the remaining tissues. After rotation at 37° C. for 15 min, the mixture was vigorously mixed using a 1 ml pipette for 1 min. Supernatants from the two steps were combined and passed through 70 μm filters and stained for FACS (below).
# Isolation of cells from the lamina propria (LP). The small intestines were opened longitudinally and washed in ice-cold PBS. For scRNA-seq, roughly 0.5 cm of fragments from each of the distal, middle and proximal regions without visible PPs were collected. Epithelial cells were dissociated by tissue rotation in pre-warmed (37° C.) PBS containing 10 mM EDTA at 37° C. for 15 min, followed by additional incubation on ice for 15 min. Tissues were then shaken vigorously. […]
molecule,measurement,setting,value
"OVA (protein, UniProt P01012 2-386, looked up) Ovalbumin: GSIGAASMEFCFDVFKELKVHHANENIFYCPIAIMSALAMVYLGAKDSTRTQINKVVRFDKLPGFGDSIEAQCGTSVNVHSSLRDILNQITKPNDVYSFSLASRLYAEERYPILPEYLQCVKELYRGGLEPINFQTAADQARELINSWVESQTNGIIRNVLQPSSVDSQTAMVLVNAIVFKGLWEKAFKDEDTQAMPFRVTEQESKPVQMMYQIGLFRVASMASEKMKILELPFASGTMSMLVLLPDEVSGLEQLESIINFEKLTEWTSSNVMEERKIKVYLPRMKMEEKYNLTSVLMAMGITDVFSSSANLSGISSAESLKISQAVHAAHAEINEAGREVVGSAEAGVDAASVSEEFRADHPFLFCIKHIATNAVLFFGRCVSP",Txnip: LN (average fold change),"cluster ID 5, PP, OVA vs PBS",0.660
same,Uba52: LN (average fold change),"cluster ID 5, PP, OVA vs PBS",0.277
same,Ucp2: LN (average fold change),"cluster ID 5, PP, OVA vs PBS",0.325
same,Wdr89: LN (average fold change),"cluster ID 5, PP, OVA vs PBS",0.291
same,Zfp36l2: LN (average fold change),"cluster ID 5, PP, OVA vs PBS",0.865
same,AY036118: percentage of expressing cells in OVA-treated group,"cluster ID 6, PP",0.426
same,Atf3: percentage of expressing cells in OVA-treated group,"cluster ID 6, PP",0.091
same,Atp5h: percentage of expressing cells in OVA-treated group,"cluster ID 6, PP",0.963
same,B3gnt8: percentage of expressing cells in OVA-treated group,"cluster ID 6, PP",0.486
same,Bcl2l11: percentage of expressing cells in OVA-treated group,"cluster ID 6, PP",0.257
same,Bhlhe40: percentage of expressing cells in OVA-treated group,"cluster ID 6, PP",0.465
same,Bloc1s2: percentage of expressing cells in OVA-treated group,"cluster ID 6, PP",0.784
same,Btg2: percentage of expressing cells in OVA-treated group,"cluster ID 6, PP",0.801
same,Ccl4: percentage of expressing cells in OVA-treated group,"cluster ID 6, PP",0.848
same,Cd68: percentage of expressing cells in OVA-treated group,"cluster ID 6, PP",0.861
same,Cd83: percentage of expressing cells in OVA-treated group,"cluster ID 6, PP",0.092
same,Cdv3: percentage of expressing cells in OVA-treated group,"cluster ID 6, PP",0.414
same,Clcn3: percentage of expressing cells in OVA-treated group,"cluster ID 6, PP",0.35
same,Clec10a: percentage of expressing cells in OVA-treated group,"cluster ID 6, PP",0.532
same,Clec2d: percentage of expressing cells in OVA-treated group,"cluster ID 6, PP",0.578
same,Coq10b: percentage of expressing cells in OVA-treated group,"cluster ID 6, PP",0.242
same,Crem: percentage of expressing cells in OVA-treated group,"cluster ID 6, PP",0.34
same,Cxcr3: percentage of expressing cells in OVA-treated group,"cluster ID 6, PP",0.516
same,Cxcr4: percentage of expressing cells in OVA-treated group,"cluster ID 6, PP",0.561
same,D13Ertd608e: percentage of expressing cells in OVA-treated group,"cluster ID 6, PP",0.947
same,Ddit4: percentage of expressing cells in OVA-treated group,"cluster ID 6, PP",0.221
same,Ddx3x: percentage of expressing cells in OVA-treated group,"cluster ID 6, PP",0.436
same,Defa24: percentage of expressing cells in OVA-treated group,"cluster ID 6, PP",0.099
same,Dnajc7: percentage of expressing cells in OVA-treated group,"cluster ID 6, PP",0.987
same,Dusp1: percentage of expressing cells in OVA-treated group,"cluster ID 6, PP",0.406
same,Dusp5: percentage of expressing cells in OVA-treated group,"cluster ID 6, PP",0.668
same,Dusp18: percentage of expressing cells in OVA-treated group,"cluster ID 6, PP",0.091
same,Egr1: percentage of expressing cells in OVA-treated group,"cluster ID 6, PP",0.143
same,Emp3: percentage of expressing cells in OVA-treated group,"cluster ID 6, PP",0.936
same,Erdr1: percentage of expressing cells in OVA-treated group,"cluster ID 6, PP",0.149
same,Fabp2: percentage of expressing cells in OVA-treated group,"cluster ID 6, PP",0.048
same,Fam46c: percentage of expressing cells in OVA-treated group,"cluster ID 6, PP",0.221
same,Filip1l: percentage of expressing cells in OVA-treated group,"cluster ID 6, PP",0.384
same,Fkbp5: percentage of expressing cells in OVA-treated group,"cluster ID 6, PP",0.161
same,Fosb: percentage of expressing cells in OVA-treated group,"cluster ID 6, PP",0.332
same,Fosl2: percentage of expressing cells in OVA-treated group,"cluster ID 6, PP",0.141
same,Foxp1: percentage of expressing cells in OVA-treated group,"cluster ID 6, PP",0.719
same,Fyn: percentage of expressing cells in OVA-treated group,"cluster ID 6, PP",0.756
same,Gapdh: percentage of expressing cells in OVA-treated group,"cluster ID 6, PP",0.911
same,Gapt: percentage of expressing cells in OVA-treated group,"cluster ID 6, PP",0.657
same,Gnb1: percentage of expressing cells in OVA-treated group,"cluster ID 6, PP",0.515
same,Grasp: percentage of expressing cells in OVA-treated group,"cluster ID 6, PP",0.193
same,Gtf2i: percentage of expressing cells in OVA-treated group,"cluster ID 6, PP",0.542
same,H2-Aa: percentage of expressing cells in OVA-treated group,"cluster ID 6, PP",0.947
same,H2-Ab1: percentage of expressing cells in OVA-treated group,"cluster ID 6, PP",0.949
same,H2-Eb1: percentage of expressing cells in OVA-treated group,"cluster ID 6, PP",0.907
same,H2afj: percentage of expressing cells in OVA-treated group,"cluster ID 6, PP",0.935
same,Hes6: percentage of expressing cells in OVA-treated group,"cluster ID 6, PP",0.474
same,Hist1h1c: percentage of expressing cells in OVA-treated group,"cluster ID 6, PP",0.522
same,Hist2h4: percentage of expressing cells in OVA-treated group,"cluster ID 6, PP",0.165
same,Ier2: percentage of expressing cells in OVA-treated group,"cluster ID 6, PP",0.432
same,Ier5: percentage of expressing cells in OVA-treated group,"cluster ID 6, PP",0.937
same,Ifi30: percentage of expressing cells in OVA-treated group,"cluster ID 6, PP",0.883
same,Ifrd1: percentage of expressing cells in OVA-treated group,"cluster ID 6, PP",0.241
same,Igha: percentage of expressing cells in OVA-treated group,"cluster ID 6, PP",0.681
same,Igkc: percentage of expressing cells in OVA-treated group,"cluster ID 6, PP",0.944
same,Itpkb: percentage of expressing cells in OVA-treated group,"cluster ID 6, PP",0.296
same,Jun: percentage of expressing cells in OVA-treated group,"cluster ID 6, PP",0.769
same,Junb: percentage of expressing cells in OVA-treated group,"cluster ID 6, PP",0.745
same,Jund: percentage of expressing cells in OVA-treated group,"cluster ID 6, PP",0.92
same,Kdm6b: percentage of expressing cells in OVA-treated group,"cluster ID 6, PP",0.307
same,Klf4: percentage of expressing cells in OVA-treated group,"cluster ID 6, PP",0.147
same,Klk1: percentage of expressing cells in OVA-treated group,"cluster ID 6, PP",0.964
same,Kmt2e: percentage of expressing cells in OVA-treated group,"cluster ID 6, PP",0.596
same,Lag3: percentage of expressing cells in OVA-treated group,"cluster ID 6, PP",0.605
same,Lgals1: percentage of expressing cells in OVA-treated group,"cluster ID 6, PP",0.985
same,Lmnb1: percentage of expressing cells in OVA-treated group,"cluster ID 6, PP",0.189
same,Ly6c1: percentage of expressing cells in OVA-treated group,"cluster ID 6, PP",0.991
same,Lyz1: percentage of expressing cells in OVA-treated group,"cluster ID 6, PP",0.035
same,Mcl1: percentage of expressing cells in OVA-treated group,"cluster ID 6, PP",0.459
